In the Immune Epitope Database (IEDB):

Assays:
HLA-B*18:01 [1] = assay: IEDB peptide-MHC binding, purified MHC/direct/fluorescence; filed as Kd, often an IC50 or EC50 that approximates it; ≥ and ≤ were set here for values at or beyond the usual limits of such assays; details: source organism: Yersinia pestis
HLA-B*58:01 = assay: as above; details: source organism: Yersinia pestis
HLA-B*27:05 = assay: as above; details: source organism: Yersinia pestis
HLA-A*02:01 [2] = assay: as above; details: source organism: Yersinia pestis
HLA-A*26:01 = assay: as above; details: source organism: Yersinia enterocolitica subsp. enterocolitica 8081
HLA-B*08:02 = assay: as above; details: source organism: Yersinia enterocolitica subsp. enterocolitica 8081
HLA-B*15:01 = assay: as above; details: source organism: Yersinia pestis
HLA-A*03:01 = assay: as above; details: source organism: Yersinia pestis
HLA-B*08:03 = assay: as above; details: source organism: Yersinia enterocolitica subsp. enterocolitica 8081
HLA-B*40:01 = assay: as above; details: source organism: Yersinia pestis
HLA-B*39:01 [3] = assay: as above; details: source organism: Yersinia enterocolitica subsp. enterocolitica 8081
HLA-B*46:01 = assay: as above; details: source organism: Yersinia pestis
HLA-B*48:01 = assay: as above; details: source organism: Yersinia pestis
HLA-B*07:02 = assay: as above; details: source organism: Yersinia pestis
HLA-B*57:01 [4] = assay: as above; details: source organism: Yersinia pestis
HLA-A*02:03 = assay: IEDB peptide-MHC binding, purified MHC/competitive/fluorescence; filed as Kd, often an IC50 or EC50 that approximates it; ≥ and ≤ were set here for values at or beyond the usual limits of such assays
HLA-A*01:01 = assay: as above; details: source organism: Yersinia pestis Nepal516
HLA-A*02:06 = assay: as above; details: source organism: Yersinia pestis Nepal516
HLA-A*26:02 = assay: as above; details: source organism: Yersinia pestis Nepal516
HLA-A*26:03 = assay: as above; details: source organism: Yersinia pestis Nepal516
HLA-B*18:01 [5] = assay: as above; details: source organism: Deerpox virus W-848-83
HLA-A*69:01 = assay: as above; details: source organism: Deerpox virus W-848-83
HLA-A*02:16 = assay: as above; details: source organism: Deerpox virus W-848-83
HLA-A*02:01 [6] = assay: as above; details: source organism: Deerpox virus W-848-83
HLA-B*27:03 = assay: as above; details: source organism: Deerpox virus W-848-83
HLA-A*02:12 = assay: as above; details: source organism: Deerpox virus W-848-83
HLA-A*02:11 = assay: as above; details: source organism: Deerpox virus W-848-83
HLA-B*39:01 [7] = assay: as above; details: source organism: Deerpox virus W-848-83
HLA-B*51:01 = assay: as above; details: source organism: Deerpox virus W-848-83
HLA-A*02:19 = assay: as above; details: source organism: Deerpox virus W-848-83
HLA-B*57:01 [8] = assay: as above; details: source organism: Deerpox virus W-848-83

## QWSPGPGRL
HLA-B*18:01 [1]
  Kd: ≥ 20 µM
HLA-B*58:01
  Kd: ≥ 20 µM
HLA-B*27:05
  Kd: ≥ 20 µM
HLA-A*02:01 [2]
  Kd: ≥ 20 µM
HLA-A*26:01
  Kd: ≥ 20 µM
HLA-B*08:02
  Kd: ≥ 20 µM
HLA-B*15:01
  Kd: ≥ 20 µM
HLA-A*03:01
  Kd: 718 nM
HLA-B*08:03
  Kd: ≥ 20 µM
HLA-B*40:01
  Kd: ≥ 20 µM
HLA-B*39:01 [3]
  Kd: ≥ 20 µM
HLA-B*46:01
  Kd: ≥ 20 µM
HLA-B*48:01
  Kd: ≥ 20 µM
HLA-B*07:02
  Kd: ≥ 20 µM
HLA-B*57:01 [4]
  Kd: ≥ 20 µM
HLA-A*02:03; source organism: Yersinia pestis Nepal516
  Kd: 4.85 µM
HLA-A*01:01
  Kd: ≥ 20 µM
HLA-A*02:06
  Kd: 157 nM
HLA-A*26:02
  Kd: ≥ 20 µM
HLA-A*26:03
  Kd: ≥ 20 µM

## YVAGITLTH
HLA-B*18:01 [5]
  Kd: ≥ 20 µM
HLA-A*69:01
  Kd: ≥ 20 µM
HLA-A*02:16
  Kd: ≥ 20 µM
HLA-A*02:03; source organism: Deerpox virus W-848-83
  Kd: ≥ 20 µM
HLA-A*02:01 [6]
  Kd: ≥ 20 µM
HLA-B*27:03
  Kd: ≥ 20 µM
HLA-A*02:12
  Kd: ≥ 20 µM
HLA-A*02:11
  Kd: ≥ 20 µM
HLA-B*39:01 [7]
  Kd: ≥ 20 µM
HLA-B*51:01
  Kd: ≥ 20 µM
HLA-A*02:19
  Kd: ≥ 20 µM
HLA-B*57:01 [8]
  Kd: ≥ 20 µM
